Target: lnkH2B-H2A.Z (linked H2B-H2A.Z, single polypeptide chain) (human) (UniProt Q16778)
Test: AUC

## EEEEEEEEEDEDEDEDEDEAGSELGEGEEEVGLSYLMKEEIQDEEDD (domain or fragment) [Anp32e_(186-232)]
  stoichiometry N: 1

— paper PMC3975505
